± gives the standard deviation of the averaged measurements.
test system: Saccharomyces cerevisiae; test: protein stability index of tFT-peptide fusion (C-terminal peptide) (PSI (0-1 scale)); higher = more stable (slower turnover); details: genetic background: wild type; temperature: 30 C
Protocol: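 Multiplexed protein stability (MPS) profiling in S. cerevisiae. Random 12-aa peptides (tFT-X12 library) are fused to the C-terminus of a sfGFP-mCherry tandem fluorescent timer, after mCherry and a GGGS linker. Cells are FACS-sorted into 8 mCherry/sfGFP bins and deep-sequenced. The protein stability index (PSI) is the read-weighted bin average, scaled from 0 (unstable) to 1 (stable). Only peptides with >10 reads are reported; cells were grown at 30 °C in SC-His with glucose.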
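Further: PSI is a weighted mean of sequencing reads over stability bins, variants kept only with over 10 reads, mCherry proximal and sfGFP distal, peptide attached via GGGS linker.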

Row | Sequence | protein stability index
1 | IKKKKEEKKKKK | 0.586 ± 0.023
2 | IKKLNTYIKRNV | 0.586 ± 0.025
3 | IKKLYIICQQMK | 0.666 ± 0.035
4 | IKKNKKKKNERK | 0.675 ± 0.025
5 | IKQEKPTKLPEP | 0.6435 ± 0.0052
6 | IKREATNASEPN | 0.686 ± 0.057
7 | IKREGRDNEEKK | 0.703 ± 0.039
8 | IKTKKKKENKRR | 0.723 ± 0.008
9 | IKTLLDYESMRS | 0.768 ± 0.034
10 | IKVKRRQLKQEK | 0.779 ± 0.097
11 | ILCPFSGCGAGG | 0.683 ± 0.022
12 | ILEGFRHVSPVG | 0.717 ± 0.085
13 | ILFGSILGVPLL | 0.661 ± 0.01
14 | ILFSILHLLSYL | 0.6426 ± 0.0039
15 | ILVHFQGVHTVL | 0.663 ± 0.018
16 | IMCPVRDSNIFS | 0.733 ± 0.026
17 | INIKKKKKIQHI | 0.564 ± 0.016
18 | INKRKQKLIKKV | 0.628 ± 0.0069
19 | INWGVRGTLSSE | 0.706 ± 0.04
20 | IPLSPLRSPPPR | 0.648 ± 0.023
21 | IPRPFRSLPFLP | 0.7307 ± 0.0047
22 | IPRRMFNIRKKR | 0.666 ± 0.036
23 | IQAVHYTARVPN | 0.664 ± 0.072
24 | IQIGESLYFWFV | 0.654 ± 0.066
25 | IRAGRGPARVVP | 0.707 ± 0.058

Row | Sequence | protein stability index
26 | IRLMTTIITYMI | 0.44 ± 0.13
27 | IRPNLERKIKVR | 0.6226 ± 0.0014
28 | IRQPNHSIGPHG | 0.719 ± 0.024
29 | IRRHNVELSGYL | 0.641 ± 0.022
30 | IRRKLINYIKKG | 0.619 ± 0.066
31 | IRRLCGSSRPLP | 0.708 ± 0.037
32 | IRSAGEKDRKRE | 0.696 ± 0.03
33 | IRSVNFNIFVKR | 0.748 ± 0.057
34 | IRSVVLSSCWRG | 0.706 ± 0.0097
35 | IRVADLNSSSFC | 0.888 ± 0.16
36 | ISIRKNSNQETM | 0.692 ± 0.14
37 | ISPRSRSCAYGV | 0.734 ± 0.073
38 | ISRDNSQITRNM | 0.68 ± 0.015
39 | ITALSSPVRDKL | 0.646 ± 0.061
40 | ITEGGANLEGRF | 0.661 ± 0.029
41 | ITGPLAPYLGGF | 0.688 ± 0.037
42 | ITIPICTTFHHV | 0.731 ± 0.029
43 | ITIPISGLQVGV | 0.591 ± 0.027
44 | ITNQVIRLSLSN | 0.732 ± 0.083
45 | ITRAVLPARLFR | 0.705 ± 0.013
46 | ITRDFQLWASDL | 0.708 ± 0.0083
47 | ITSHRDSVSRWK | 0.707 ± 0.0095
48 | ITSQLWGVPLPY | 0.7134 ± 0.0032
49 | IVGRGGRGGWGV | 0.685 ± 0.04
50 | IVLHLAASPTPP | 0.65 ± 0.015

Row | Sequence | protein stability index
51 | IVLRRRKVTRRI | 0.68 ± 0.043
52 | IVPIVDMMIIRK | 0.653 ± 0.068
53 | IVPPALRSDGRR | 0.668 ± 0.035
54 | IVSPSYGEGSIR | 0.695 ± 0.026
55 | IVSVSLYLYHFR | 0.548 ± 0.0059
56 | IWFRGGPGQVPV | 0.683 ± 0.027
57 | IWGLSGGKKLLW | 0.718 ± 0.043
58 | IWQLRARIQAGW | 0.617 ± 0.047
59 | IWTRAFAPSNRF | 0.715 ± 0.02
60 | KACVKRVYCILE | 0.58 ± 0.015
61 | KAEEKARGEDWQ | 0.681 ± 0.05
62 | KAGGGEGRDAWG | 0.667 ± 0.049
63 | KAKKKRRGTSKN | 0.703 ± 0.066
64 | KARMTDQLKSTS | 0.672 ± 0.045
65 | KATIRRGGKKEK | 0.682 ± 0.014
66 | KCGLQRFREAIY | 0.61 ± 0.0084
67 | KCKLNDTETMGK | 0.693 ± 0.026
68 | KCLCGVHVRLRA | 0.5901 ± 0.0017
69 | KDDHTLMTKYNA | 0.643 ± 0.025
70 | KDEGIRENKPNH | 0.668 ± 0.078
71 | KDGMATKCIAYT | 0.657 ± 0.011
72 | KDLEIKKEKRKD | 0.666 ± 0.015
73 | KEARHCAQRKDI | 0.546 ± 0.062
74 | KEKNKIKNREVK | 0.618 ± 0.052
75 | KENKKKKQRKLK | 0.774 ± 0.067

Row | Sequence | protein stability index
76 | KEQKKKLKKKHG | 0.594 ± 0.099
77 | KERKEKKKKKNK | 0.7227 ± 0.0045
78 | KESEKRKRENKN | 0.698 ± 0.025
79 | KESKIKDKNSII | 0.734 ± 0.012
80 | KETLRMKFNSWK | 0.6764 ± 0.0043
81 | KETSERKNKETG | 0.624 ± 0.041
82 | KFKAYNIKKWKE | 0.702 ± 0.03
83 | KFVSQLGQRTRF | 0.745 ± 0.05
84 | KGEGGEGSMGGA | 0.733 ± 0.053
85 | KGGCGAGRDGRG | 0.731 ± 0.026
86 | KGGFGCVGLPGG | 0.638 ± 0.031
87 | KGHQGGLSEGMI | 0.6 ± 0.092
88 | KGMEWEKGYKRL | 0.838 ± 0.23
89 | KGQNLAVTRERE | 0.7 ± 0.024
90 | KGRLRVGAAGCD | 0.633 ± 0.011
91 | KGYGKTGTLRHD | 0.646 ± 0.013
92 | KHQNEKKQTNKA | 0.623 ± 0.034
93 | KIDQLDHVGLYS | 0.674 ± 0.015
94 | KIEHEGIKTGGT | 0.757 ± 0.16
95 | KIFRNKHENDLK | 0.695 ± 0.026
96 | KIHRNGNKKEKD | 0.7 ± 0.013
97 | KIKKKKEQTKKK | 0.752 ± 0.15
98 | KIKKKKKKNKEH | 0.591 ± 0.028
99 | KIKRKKSIHDKQ | 0.693 ± 0.012
100 | KIKRTNKNIKKS | 0.672 ± 0.017

Row | Sequence | protein stability index
101 | KIKSEFNMIGKN | 0.693 ± 0.091
102 | KILNIKCLLANK | 0.686 ± 0.017
103 | KILRKVIKQKGN | 0.599 ± 0.041
104 | KIRIWWIEEKTI | 0.6067 ± 0.0023
105 | KIRRECIGSSVY | 0.687 ± 0.019
106 | KISNRNKRTNRK | 0.689 ± 0.077
107 | KITKRTKKTKEN | 0.67086 ± 0.00056
108 | KKDQEKEKKGKE | 0.613 ± 0.015
109 | KKEAKRDKKSGR | 0.727 ± 0.12
110 | KKEEKKRRKPQR | 0.626 ± 0.039
111 | KKEKKKTKKWQE | 0.694 ± 0.1
112 | KKEPEKEQQNKE | 0.746 ± 0.097
113 | KKEQKRKKKEKQ | 0.758 ± 0.098
114 | KKERINNDLPGS | 0.619 ± 0.026
115 | KKERSTKTNRNV | 0.635 ± 0.0072
116 | KKGRKKEGKREK | 0.621 ± 0.06
117 | KKIKKRQSKENK | 0.704 ± 0.015
118 | KKKENRQKREIQ | 0.647 ± 0.029
119 | KKKETEKPRKQK | 0.677 ± 0.054
120 | KKKETKKENKKK | 0.723 ± 0.034
121 | KKKHKNNIQKKK | 0.6129 ± 0.0017
122 | KKKIKKKSIKKT | 0.7074 ± 0.0044
123 | KKKKEEKWSSAR | 0.709 ± 0.061
124 | KKKKGNKKRREK | 0.731 ± 0.0083
125 | KKKKHKNRKEKQ | 0.692 ± 0.019

Row | Sequence | protein stability index
126 | KKKKIIKKKNIK | 0.77 ± 0.069
127 | KKKKKEEKKNDK | 0.721 ± 0.0073
128 | KKKKKIHIKNKK | 0.707 ± 0.052
129 | KKKKKKKKQNQK | 0.7 ± 0.03
130 | KKKKKKKNKKQE | 0.7456 ± 0.005
131 | KKKKKKKQKSKK | 0.704 ± 0.057
132 | KKKKKKLKKKKI | 0.724 ± 0.056
133 | KKKKKKNKKEKK | 0.689 ± 0.12
134 | KKKKKLKERRKI | 0.668 ± 0.019
135 | KKKKKNKKKKKK | 0.705 ± 0.046
136 | KKKKKQEREKRN | 0.623 ± 0.037
137 | KKKKKQKEKKQK | 0.72 ± 0.0083
138 | KKKKKRITKIKN | 0.7089 ± 0.0018
139 | KKKKKRTKKNNH | 0.767 ± 0.11
140 | KKKKNKKEEHVE | 0.715 ± 0.02
141 | KKKKNKKIKINE | 0.6874 ± 0.0033
142 | KKKKNKKNKRKN | 0.613 ± 0.034
143 | KKKKNKNKRTRK | 0.662 ± 0.038
144 | KKKMINQKKKKD | 0.649 ± 0.016
145 | KKKNKEKSKKKK | 0.761 ± 0.05
146 | KKKNKKQNKAKK | 0.6396 ± 0.0023
147 | KKKRKKNRKTNK | 0.67 ± 0.02
148 | KKKSNNNNQKPH | 0.737 ± 0.016
149 | KKMNVKNNKSKI | 0.777 ± 0.17
150 | KKNLITRQNPLS | 0.69004 ± 0.0003

Row | Sequence | protein stability index
151 | KKNQKEKATSRK | 0.769 ± 0.043
152 | KKNQNSKNRKEN | 0.627 ± 0.036
153 | KKNRSRKRRNKK | 0.713 ± 0.032
154 | KKNYNTKLTQHP | 0.683 ± 0.04
155 | KKRKKNIKQNTK | 0.617 ± 0.043
156 | KKRQKKKKLIPQ | 0.697 ± 0.024
157 | KKTDKSNKVKRI | 0.669 ± 0.013
158 | KKWRKKTEHDKE | 0.729 ± 0.028
159 | KKYEKNGKSSQK | 0.685 ± 0.1
160 | KKYETNENNQKK | 0.686 ± 0.027
161 | KKYKKIGYRRIP | 0.773 ± 0.12
162 | KKYNRNRIKKAR | 0.7 ± 0.08
163 | KKYYCRKLNTKK | 0.715 ± 0.017
164 | KLKACRIHEENR | 0.676 ± 0.019
165 | KLKNKRKKIRNR | 0.71 ± 0.045
166 | KLNKKKKITIRI | 0.589 ± 0.025
167 | KLRSTLVSAQGV | 0.652 ± 0.015
168 | KLTKAQPRMPLL | 0.702 ± 0.027
169 | KLVVFPYIRPSP | 0.709 ± 0.021
170 | KMCISLGTVLAV | 0.5504 ± 0.0055
171 | KMSRKIKIRERG | 0.658 ± 0.016
172 | KNCYPTKKIAIK | 0.638 ± 0.016
173 | KNDLHGLFLMSE | 0.648 ± 0.041
174 | KNIEKKKQKDTQ | 0.645 ± 0.058
175 | KNITVVKKAFDA | 0.654 ± 0.024

Row | Sequence | protein stability index
176 | KNKFSTWDNEVN | 0.718 ± 0.041
177 | KNKKKKINKNKK | 0.713 ± 0.067
178 | KNKKNKKKKTMK | 0.685 ± 0.041
179 | KNKKRDKYRKKT | 0.607 ± 0.011
180 | KNKRTQKKKRKK | 0.7299 ± 0.0016
181 | KNRKIIIITLPK | 0.63 ± 0.036
182 | KPKKKRTKQRKR | 0.705 ± 0.08
183 | KPKRIRCDRSPH | 0.694 ± 0.019
184 | KPPCFSPTHHCP | 0.713 ± 0.0018
185 | KQANTKINSQKT | 0.712 ± 0.036
186 | KQGFVRARSYHP | 0.699 ± 0.013
187 | KQKKTKKTKKQN | 0.647 ± 0.044
188 | KQKQNKKKNNKT | 0.843 ± 0.16
189 | KQLGMTCRYISK | 0.692 ± 0.022
190 | KQMRIEYKTRNI | 0.604 ± 0.015
191 | KQRQTKTIRGPR | 0.672 ± 0.059
192 | KQWCFLKWGVNV | 0.558 ± 0.058
193 | KREKENIAKSSV | 0.718 ± 0.078
194 | KREMCHRYTRRS | 0.67 ± 0.097
195 | KRFQDRPRPGAH | 0.687 ± 0.044
196 | KRGYLRTNPLSY | 0.7056 ± 0.0061

From the supplement of paper PMC10724198
